Assay results reported in patent US20240218057A1 (ROCKEFELLER UNIVERSITY, published 2024).

Each binder was assayed against T1, SARS-COV-2 RBD (SARS-COV-2, UniProt P0DTC2 319-539) (assay: ELISA, RBD coated).
T1 construct: also called WT RBD

Binder | EC50
C838 (antibody, V domains shown, IgG; V domains only) VH: EVQLVESGGGLVQPGKSLRLSCTASGFTFEDYAMHWVRQAPGKGLEWVSGINWKSGSRGYADSAKGRFTISGNTAKNTLHLQMNSLRAEDTAFYYCAKAGVRNIAAAGPDLNFDFWGQGTLVTVSS VL: EIVLTQSPATLSLSPGERATLSCRASQSVGTYLAWYQHKLGQAPRLLIYDATKRATGIPARFSGSGSGTDFTLTISSLEPEDFAIYYCQQRITFGQGTRLEIK | 3.03 ng/mL
C950 (antibody, V domains shown, IgG; V domains only) VH: QVQLVESGGGLVKPGGSLRLSCAASGFTFSDYCVTWIRQAPGKGLEWLSYSNTNDSSRSYADSVKGRFTISRDNAKNSLYLQMDSLRAEDTAVYYCARRGDGNVPLFHYYYMDVWGKGTTVTVSS VL: QSVLTQPPSASGTAGQRVTISCSGGSSNIGSNTVHWYQQLPGTAPKLLIYSNYKRPSGVPDRFSGSKSGASASLAISGLQSEDEAEYYCAAWDDSANGPIFGGGTKLTVL | 2.15 ng/mL
C1045 (antibody, V domains shown, IgG; V domains only) VH: QVQLQESGPGLVKPSQTLSLTCTVSGDSISSGNYYWSWIRQPAGKGLEWIGHIYTSGSPNYKPSLKSRVTISLDTSKNQFSLKLTSVTAADTAMYYCARDIPSTWYFDLWGRGTLVTVSS VL: SYELTQPPSVSVAPGKTARIPCGGTDIGSKNVHWYQQKPGQAPVLAVYDDSDRPSGIPERFSGSNSGSTATLTISRVEAGDEADYYCQVWDSSGDRLSWVFGGGTKLTVL | 2.57 ng/mL

These binders were tested against T2, SARS-COV-2 RBD (SARS-COV-2, UniProt P0DTC2 319-539) (assay: ELISA, RBD coated on plate).
T2 construct: also called WT RBD

Binder | EC50
C1001 (antibody, V domains shown) VH: QVQLQESGPGLVKPSQTLSLTCTVSGGSISSGDYYWTWIRQPPGKGLEWIGYIFYSGITYYSPSLKSRLTMSIDTSKSQFSLNLSSVTAADTAVYYCARWKRLLQSLHFDYWGQGILVTVSS VL: QSALTQPRSVSGSPGQSVTISCTGTSSDVGSYDYVSWYQQHPGKAPKVMIYGVDERPSGVPHRFSGSKSGNTASLTISGLQADDEADYFCCFYAGSYTLLFGGGTKVTVL | 3.23 ng/mL
C983 (antibody, V domains shown) VH: QVQLVESGGGVVRPGRSLRLSCAASGFTFSKYGMHWVRQAPGKGLECVASIAYDGSDDSYADSVKGRFIISRDNSKNTLYLQMNSLRAADTAVYYCAKVLGSYCSASSCHGQRPDYWGQGTLVTVSS VL: DIQMTQSPSSLSAYVGDRVTITCQASQDISNHLNWYQQKPGKAPNLLIYDASNLETGVPSRFSGSGSGTDFSFTISSLQPEDIATYYCQQYDNVPPWTFGQGTKVEIK | 2.11 ng/mL
C1002 (antibody, V domains shown) VH: EVQLVESGGGLVQPGGSLRLSCAASEFIVSSNYMTWVRQAPGKGLEWVSIMYPGGSTFYADSVKGRFTISRDNSKNTLYLQINRLRAEDTAVYYCARDIAGRLDYWGQGTLVTVSS VL: DIQMTQSPSSLSASVGDRVTITCQASQDINNYLNWYQQKPGKAPKLLIYDASNLETGVPSRFSGSGSGTDFSFTISSLQPEDIATYYCQQYDNLSRLTFGGGTKVEIK | 0.83 ng/mL
C993 (antibody, V domains shown) VH: EVQLLESGGGLVQPGGSLRLSCAASGFPFSIYAMSWVRQAPGKGLEWVSGMRGTTGTTYYADSVKGRFAISRDNSKNMLHLQMNSLRAEDTAVYYCAKSDHGDYVIGAFDIWGQGTMVTVSS VL: QSALTQPPSASGSPGQSVTISCTGTSGDVGGYNYVSWYQQHPGKAPKLMIYEVSKRPSGVPDRFSGSKSGNTASLTVSGLQAEDEADYYCNSYAGSNNWVFGGGTKLTVL | 2.29 ng/mL
C1003 (antibody, V domains shown) VH: QVQLVESGGGVVQPGRSLRLSCAASGFAFSSYGMNWVRQAPGKGLEWVTTVSSDGNVNYYIDSVKGRFTISRDNSKNTLYLQMNSLRGDDTAVYYCAKGPRFGWSYRGGSGFDIWGQGTMVTVSS VL: DIQMTQSPSSLSASVGDRVTITCQASQDISNYLNWYQQKPGKAPKLLIYDASNLETGVPSRFSGSGSGTDFTFTITSLQPEDIATYYCQQYDNLPITFGQGTRLEIK | 1.82 ng/mL
C1000 (antibody, V domains shown) VH: QVQLQESGPGLVKPSQTLSLSCTVSGGSISSDDYYWSWIRQPPGKGLEWIGYIYYSGSTYYNSSLKSRVSISVDTSKNQFSLKLSSVTAADTAVYYCARWKRWLQFLYFDYWGQGTLVTVSS VL: QSALTQPRSVSGSPGQSVTISCTGTSSDVGGYSFVSWYQQHPGKAPKVLIYDVDKRPSGVPDRLSGSKSGNTASLTISGLQAEDEADYYCCSYAGSYTLIFGGGTKLTVL | 3.2 ng/mL
C987 (antibody, V domains shown) VH: QVQLQESGPGLVKPSETLSLTCNVSGDIINKYYWSWIRQSPGKGLEWIGYIYYSGTTYYNPSLKSRVTMSVGTSKQQFSLRLTSVTAADTAVYYCARMLSTEWSFNWFDPWGPGTLVTVSS VL: SYELTQPPSVSVSPGQAASITCSGDKLGDKFACWYQQKPGQSPVLVIYQNDKRPTGIPERFSGSNSGNTATLTISGTQAMDEADYFCQAWDSTSASVFGTGTKVTVL | 3.11 ng/mL
C984 (antibody, V domains shown) VH: QVQLVQSGTEVKKPGDSVQVSCKTSGYSFTGYYIHWVRQAPGQGLEWMGRINPNSGGTNYAQKFQGRVIMTRDTSITTAFMELTRLRYDDTAVYFCAREPIEGVIGGMIVNYYYMDVWGRGTTVTVSS VL: QSALTQPASVSGSPGQSITISCTGTSSDVGGYYYVSWYQQHPGKAPKLMIYDVSSRPSGVSNRFSGSKSGNTASLTISGLQAEDEADYYCSSYTSSNTLVVFGGGTKLTVL | 2.76 ng/mL
C985 (antibody, V domains shown) VH: QVQLVQSGAEVKKPGASVKVSCKASGYIFTGYYMHWVRQAPGQGLEWMGRINPNSGGSRYAEKFQGRVTMTRDTSIITAFMELRGLKSDDTAVYYCAREPIEAVPAGIIVNYYYMDVWGNGTTVTVSS VL: QSALTQPASVSGSPGQSITISCTGTSSDVGGYNYVSWYQQHPGKAPKLMIYDVTSRPSGVSDRFSGSKSGTTASLTISGLQAEDEADYYCSSFTSAFTLVVFGGGTKLTVL | 3.67 ng/mL
C998 (antibody, V domains shown) VH: QVQLVQSGAEVKKPGASVKVSCKTSGYTFISYYIHWVRQAPGQGLEWMGIINPDGDNTNYAQKFQGRVTMTRDTSTSTVYMELSSLRFEDTAVYYCARGGAIPALRTAFDIWGQGTMVTVSS VL: DIQMTQSPSTLSASVGDRVTITCRASQSISNWLAWYQQKPGKAPKLLIYKASSLESGVPSRFSGSGSGTEFTLTISSLQPDDFATYYCQEYNSYYFGQGTKLEIK | 2.51 ng/mL
C999 (antibody, V domains shown) VH: QVQLVQSGAEVRRPGASVKVSCKASGYTLTHYYIHWVRQAPGQGLEWVGIINPDGDNTNYAQKFQGRVTMTRDTSTSTVYMELSSLRSEDTAIFYCARGGAIPALRSAFDIWGQGTMVTVSS VL: DIQMTQSPSTLSASVGDRVTITCRASQSINNWLAWYQQKPGKAPKLLIYKASTLESGVPSRFSGSGSGTEFTLTISSLQPDDFATYYCQQYNSYFFGQGTKLEIK | 2.68 ng/mL
C992 (antibody, V domains shown) VH: QVQLQESGPGLVKPSQTLSLTCTVSGGSISNGGYFWTWIRQHPVKGLEWIGYIYYSGSPHYNPSLKSRLSISLDTFKNQFSLNLSSVTAADTAVYYCARGDTFGRGYYFDFWGQGTLVTVSS VL: SYELTQPPSVSVAPGQTARITCGGNNIGTNSMHWYQQKPGQAPVLVVFDDSDRPSGIPERFSGSNSGNTATLTISRVEAGDEADYHCQVWDRSSDRPWVFGGGTKLTVL | 3.24 ng/mL
C990 (antibody, V domains shown) VH: EVQLVESGGGLVRPGGSLRLSCAASGFTVGSNFMSWVRQAPGKGLEWVSLIYSGGGTHYAESVKGRFTISRDKSKNTLYLQMNSLRAEDTAVYYCANQGYYYYMDVWGKGTTVTVS VL: QSALTQPASVSGSPGQSITISCTGTSSDVGAYNYVSWHQHHPGKAPKLIIYDVSNRPSGVSNRFSGSKSGNTASLTISGLQAEDEADYYCTSYTNTTTPWVFGGGTKLTVL | 1.85 ng/mL
C997 (antibody, V domains shown) VH: EVQLLESGGGLVQPGGSLRLSCAASGFTFSKDAMSWVRQAPGKGLEWVSTVTGSGTNTYYADSVKGRFTISRDNSNNTLYLQMNSLRAEDTAVYYCANHPLGAAEGYYYYYMDVWGKGTTVTVSS VL: EIVLTQSPGTLSLSPGERGTLSCRASQRVPSSQLAWYQQKSGQAPRLLIYGASSRASGIPDRFSGSGSGTDFTLNISRLEPEDFAVYYCQQYGSLRALTFGGGTKVEIK | 3.49 ng/mL
C995 (antibody, V domains shown) VH: EVQLVESGGGLIQPGRSLRLSCTASGFSVGDYAMSWFRQAPGKGLEWVGFLRNQHYGGTAEYAASVKGRFSISTDASKNIVYLQMDSLKTEDTAVYYCARNDRYIVIVPAEMLYWGQGTLVTVSS VL: EIVMTQSPATLSVSPGERATLSCRATESVYSNLAWYQQKPGQAPRLLMYDASTRAPGIPARFSGSGSGTEFTLTISSLQSEDFATYYCQQYSNWPPITFGQGTRLEIK | 3.79 ng/mL
C986 (antibody, V domains shown) VH: EVQLVQSGAEVKKPGETLKISCKGSGDSFSNYWIGWVRQSPGKGLEWMAIVYPGDSDARYSPSFQGQVTISADKSVTTAYLKWSSLKASDTAIYYCVRGLPVDWYFDLWGRGTLVTVSS VL: QSVLTQPPSVSGAPEQRVTISCTGSSSNIGAGHDVHWYQQLPGTAPKLLIYNNNNRPSGVPDRFSGSKSGASASLAISGLQAEDEAEYYCQSYDKSLSVLYVLGTGTKVTV | 3.36 ng/mL
C996 (antibody, V domains shown) VH: EVQLVESGGGLVQPGGSLRLSCVASGFTSTNYDMHWVRQAPGRGLQWVSSIGTAGDTYYPGSVRGRFTISRENAKNSLDLQMNSLRVGDTAVYYCARGQRGYYDRSGYYWGWRAFDIWGQGTMVTVSS VL: SYELTQPPSVSVAPGQTARITCGGNNIGNKSVYWYQQKPGQAPVLVVYDDSGRPSGIPERFSGSNSANTATLTISRVEAGDEADYYCQVWDNNSDQFGGGTKLTVL | 3.07 ng/mL
C994 (antibody, V domains shown) VH: QVQLQESGPGLVKPSGTLSLTCAVSGVSISNTNWWNWVRQPPGKGLEWIGEIYHTGSARYNPSLRSRVTISVDKSKNQFSLRLNSATAADTAIYYCARAQTPEFGELLYWGQGALVTVSS VL: DIQMTQSPSSLSASVGDRVTITCRASQSITDHLNWYQQKPGKAPKLLIYAASSLQTGVPSRFSGSGSETDFTLTISTLQPEDFATYYCQQSYGPPTYSFGQGTKLEIK | 2.09 ng/mL
